What was measured:
human tenascin-C (human) [1] = target: human tenascin-C (human) (UniProt P24821); experiment: ELISA, tenascin 5 µg/ml
human tenascin-C (human) [2] = target: human tenascin-C (human) (UniProt P24821); experiment: BIAcore

human tenascin-C (human), sequence (P24821 23-2201 limits assumed): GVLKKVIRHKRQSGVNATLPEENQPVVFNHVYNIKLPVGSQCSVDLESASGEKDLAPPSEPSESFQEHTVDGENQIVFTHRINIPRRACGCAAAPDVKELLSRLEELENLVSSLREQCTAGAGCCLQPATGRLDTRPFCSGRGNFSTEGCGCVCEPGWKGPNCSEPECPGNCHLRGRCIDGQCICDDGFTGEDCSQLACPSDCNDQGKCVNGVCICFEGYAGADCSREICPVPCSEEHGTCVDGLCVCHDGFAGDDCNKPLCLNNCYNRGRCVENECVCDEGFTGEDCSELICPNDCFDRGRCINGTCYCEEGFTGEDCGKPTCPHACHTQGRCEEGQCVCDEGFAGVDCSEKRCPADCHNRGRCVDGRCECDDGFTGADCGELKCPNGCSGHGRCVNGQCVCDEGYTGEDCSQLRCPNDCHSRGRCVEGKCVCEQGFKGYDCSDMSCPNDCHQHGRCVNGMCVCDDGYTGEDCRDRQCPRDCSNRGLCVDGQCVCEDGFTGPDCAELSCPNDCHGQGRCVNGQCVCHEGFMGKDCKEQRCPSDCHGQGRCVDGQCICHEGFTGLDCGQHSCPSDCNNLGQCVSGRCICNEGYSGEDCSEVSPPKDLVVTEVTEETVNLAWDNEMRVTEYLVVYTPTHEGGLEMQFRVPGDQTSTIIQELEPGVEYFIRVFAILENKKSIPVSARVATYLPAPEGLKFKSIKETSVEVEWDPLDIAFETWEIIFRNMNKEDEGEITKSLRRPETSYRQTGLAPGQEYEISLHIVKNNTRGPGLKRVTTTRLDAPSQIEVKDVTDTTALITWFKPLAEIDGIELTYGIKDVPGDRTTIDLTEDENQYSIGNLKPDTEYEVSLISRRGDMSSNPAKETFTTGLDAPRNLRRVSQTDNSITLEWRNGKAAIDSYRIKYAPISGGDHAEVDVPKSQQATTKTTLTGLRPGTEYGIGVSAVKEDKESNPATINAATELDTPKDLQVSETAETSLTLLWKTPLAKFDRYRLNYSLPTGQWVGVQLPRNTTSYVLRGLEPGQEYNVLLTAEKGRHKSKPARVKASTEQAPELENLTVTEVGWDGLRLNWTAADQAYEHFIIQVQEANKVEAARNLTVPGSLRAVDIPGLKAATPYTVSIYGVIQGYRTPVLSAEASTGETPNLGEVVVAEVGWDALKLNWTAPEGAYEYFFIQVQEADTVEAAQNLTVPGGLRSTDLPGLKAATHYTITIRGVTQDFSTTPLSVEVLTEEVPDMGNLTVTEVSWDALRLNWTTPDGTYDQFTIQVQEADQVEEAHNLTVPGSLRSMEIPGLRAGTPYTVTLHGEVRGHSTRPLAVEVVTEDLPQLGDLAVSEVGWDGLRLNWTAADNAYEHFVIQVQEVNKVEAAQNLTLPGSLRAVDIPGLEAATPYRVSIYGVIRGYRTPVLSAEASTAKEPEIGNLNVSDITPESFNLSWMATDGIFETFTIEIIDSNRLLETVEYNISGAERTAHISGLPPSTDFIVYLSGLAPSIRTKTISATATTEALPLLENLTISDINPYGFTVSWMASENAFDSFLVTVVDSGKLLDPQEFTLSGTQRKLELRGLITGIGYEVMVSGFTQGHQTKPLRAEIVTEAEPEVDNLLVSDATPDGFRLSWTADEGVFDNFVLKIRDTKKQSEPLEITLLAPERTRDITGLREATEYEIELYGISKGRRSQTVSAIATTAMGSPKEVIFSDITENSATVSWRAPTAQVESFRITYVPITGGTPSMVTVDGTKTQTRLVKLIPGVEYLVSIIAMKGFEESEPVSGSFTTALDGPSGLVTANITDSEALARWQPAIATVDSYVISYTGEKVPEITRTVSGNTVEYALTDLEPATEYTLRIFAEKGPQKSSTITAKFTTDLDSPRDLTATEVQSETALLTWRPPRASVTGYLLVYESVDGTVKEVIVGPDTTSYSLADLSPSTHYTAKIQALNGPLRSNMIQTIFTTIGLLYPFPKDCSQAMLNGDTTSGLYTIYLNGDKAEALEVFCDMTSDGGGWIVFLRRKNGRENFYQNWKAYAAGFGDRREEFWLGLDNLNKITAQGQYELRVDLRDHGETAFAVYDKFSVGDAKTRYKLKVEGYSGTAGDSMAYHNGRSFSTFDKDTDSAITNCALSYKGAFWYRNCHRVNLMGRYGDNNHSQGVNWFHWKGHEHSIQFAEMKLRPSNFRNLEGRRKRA

- EC50 (read off the curve) (human tenascin-C (human) [1]): 0.2 µg/mL
- Kd (human tenascin-C (human) [2]): 4.9 nM
Substance: BC4 anti-tenascin monoclonal antibody
